Reference: paper PMC11446282
Where a chain is given by its changes, count along the chain named.

B1: IER2 S14: IER2, S14 to alanine (protein, UniProt Q9BTL4 1-223, looked up, variant S14A)
Immediate early response gene …: MEVQKEAQRIMTLAVWKMYHSRMQRGGLRLHRSLQLSLVMRSARELYLSAKVEALEPEVSLPAALPSDPRLHPPREAESTAETATPDGEHPFPEPMDTQEAPTAEETSACCAPRPAKVSRKRRSSSLSDGGDAGLVPSKKARLEEKEEEEGASSEVADRLQPPPAQAEGAFPNLARVLQRRFSGLLNCSPAAPPTAPPACEAKPACRPADSMLNVLVRAVVAF
B2: IER2 Q8: IER2, Q8 to alanine (protein, UniProt Q9BTL4 1-223, looked up, variant Q8A)
Immediate early response gene …: B1 Immediate early response gene … with Q8A, A14S
B3: IER2 T12: IER2, T12 to alanine (protein, UniProt Q9BTL4 1-223, looked up, variant T12A)
Immediate early response gene …: B1 Immediate early response gene … with T12A, A14S
B4: IER2 Q35: IER2, Q35 to alanine (protein, UniProt Q9BTL4 1-223, looked up, variant Q35A)
Immediate early response gene …: B1 Immediate early response gene … with A14S, Q35A
B5: IER2 L36: IER2, L36 to alanine (protein, UniProt Q9BTL4 1-223, looked up, variant L36A)
Immediate early response gene …: B1 Immediate early response gene … with A14S, L36A
B6: IER2 L28: IER2, L28 to alanine (protein, UniProt Q9BTL4 1-223, looked up, variant L28A)
Immediate early response gene …: B1 Immediate early response gene … with A14S, L28A
B7: IER2 G26: IER2, G26 to alanine (protein, UniProt Q9BTL4 1-223, looked up, variant G26A)
Immediate early response gene …: B1 Immediate early response gene … with A14S, G26A
B8: IER2 W16: IER2, W16 to alanine (protein, UniProt Q9BTL4 1-223, looked up, variant W16A)
Immediate early response gene …: B1 Immediate early response gene … with A14S, W16A
B9: IER2 K17: IER2, K17 to alanine (protein)
chain: B1 Immediate early response gene … with A14S, K17A
B10: IER2 M23: IER2, M23 to alanine (protein, UniProt Q9BTL4 1-223, looked up, variant M23A)
Immediate early response gene …: B1 Immediate early response gene … with A14S, M23A
B11: IER2 L13: IER2, L13 to alanine (protein, UniProt Q9BTL4 1-223, looked up, variant L13A)
Immediate early response gene …: B1 Immediate early response gene … with L13A, A14S
B12: IER2 S33: IER2, S33 to alanine (protein, UniProt Q9BTL4 1-223, looked up, variant S33A)
Immediate early response gene …: B1 Immediate early response gene … with A14S, S33A
B13: IER2 R29: IER2, R29 to alanine (protein, UniProt Q9BTL4 1-223, looked up, variant R29A)
Immediate early response gene …: B1 Immediate early response gene … with A14S, R29A
B14: IER2 L34: IER2, L34 to alanine (protein)
chain: B1 Immediate early response gene … with A14S, L34A
B15: IER2 Q24: IER2, Q24 to alanine (protein, UniProt Q9BTL4 1-223, looked up, variant Q24A)
Immediate early response gene …: B1 Immediate early response gene … with A14S, Q24A
B16: IER2 G27: IER2, G27 to alanine (protein, UniProt Q9BTL4 1-223, looked up, variant G27A)
Immediate early response gene …: B1 Immediate early response gene … with A14S, G27A
B17: IER2 R32: IER2, R32 to alanine (protein, UniProt Q9BTL4 1-223, looked up, variant R32A)
Immediate early response gene …: B1 Immediate early response gene … with A14S, R32A
B18: IER2 S37: IER2, S37 to alanine (protein, UniProt Q9BTL4 1-223, looked up, variant S37A)
Immediate early response gene …: B1 Immediate early response gene … with A14S, S37A
B19: IER2 R25: IER2, R25 to alanine (protein, UniProt Q9BTL4 1-223, looked up, variant R25A)
Immediate early response gene …: B1 Immediate early response gene … with A14S, R25A
B20: IER2 L30: IER2, L30 to alanine (protein)
chain: B1 Immediate early response gene … with A14S, L30A
B21: IER2 M11: IER2, M11 to alanine (protein, UniProt Q9BTL4 1-223, looked up, variant M11A)
Immediate early response gene …: B1 Immediate early response gene … with M11A, A14S
B22: IER2 I10: IER2, I10 to alanine (protein, UniProt Q9BTL4 1-223, looked up, variant I10A)
Immediate early response gene …: B1 Immediate early response gene … with I10A, A14S
B23: IER2 V15: IER2, V15 to alanine (protein, UniProt Q9BTL4 1-223, looked up, variant V15A)
Immediate early response gene …: B1 Immediate early response gene … with A14S, V15A
B24: IER2 R9: IER2, R9 to alanine (protein, UniProt Q9BTL4 1-223, looked up, variant R9A)
Immediate early response gene …: B1 Immediate early response gene … with R9A, A14S
B25: IER2 H31: IER2, H31 to alanine (protein, UniProt Q9BTL4 1-223, looked up, variant H31A)
Immediate early response gene …: B1 Immediate early response gene … with A14S, H31A
B26: PME1 L4: PME1, L4 to alanine (protein, UniProt Q9Y570 2-386, looked up, variant L4A)
Protein phosphatase …: SAAEKSMHLGRLPSRPPLPGSGGSQSGAKMRMGPGRKRDFSPVPWSQYFESMEDVEVENETGKDTFRVYKSGSEGPVLLLLHGGGHSALSWAVFTAAIISRVQCRIVALDLRSHGETKVKNPEDLSAETMAKDVGNVVEAMYGDLPPPIMLIGHSMGGAIAVHTASSNLVPSLLGLCMIDVVEGTAMDALNSMQNFLRGRPKTFKSLENAIEWSVKSGQIRNLESARVSMVGQVKQCEGITSPEGSKSIVEGIIEEEEEDEEGSESISKRKKEDDMETKKDHPYTWRIELAKTEKYWDGWFRGLSNLFLSCPIPKLLLLAGVDRLDKDLTIGQMQGKFQMQVLPQCGHAVHEDAPDKVAEAVATFLIRHRFAEPIGGFQCVFPGC
B27: PME1 S7: PME1, S7 to alanine (protein, UniProt Q9Y570 2-386, looked up, variant S7A)
Protein phosphatase …: B26 Protein phosphatase … with A3L, S6A
B28: PME1 E5: PME1, E5 to alanine (protein, UniProt Q9Y570 2-386, looked up, variant E5A)
Protein phosphatase …: B26 Protein phosphatase … with A3L, E4A
B29: PME1 K6: PME1, K6 to alanine (protein, UniProt Q9Y570 2-386, looked up, variant K6A)
Protein phosphatase …: B26 Protein phosphatase … with A3L, K5A
B30: RBM7 M147: RBM7, M147 to alanine (protein, UniProt Q9Y580 2-266, looked up, variant M147A)
RNA-binding protein 7: GAAAAEADRTLFVGNLETKVTEELLFELFHQAGPVIKVKIPKDKDGKPKQFAFVNFKHEVSVPYAMNLLNGIKLYGRPIKIQFRSGSSHAPQDVSLSYPQHHVGNSSPTSTSPSRYERTMDNMTSSAQIIQRSFSSPENFQRQAVANSALRQMSYGGKFGSSPLDQSGFSPSVQSHSHSFNQSSSSQWRQGTPSSQRKVRMNSYPYLADRHYSREQRYTDHGSDHHYRGKRDDFFYEDRNHDDWSHDYDNRRDSSRDGKWRSSRH
B31: RBM7 E139: RBM7, E139 to alanine (protein, UniProt Q9Y580 2-266, looked up, variant E139A)
RNA-binding protein 7: B30 RNA-binding protein 7 with E138A, A146M
B32: RBM7 S149: RBM7, S149 to alanine (protein, UniProt Q9Y580 2-266, looked up, variant S149A)
RNA-binding protein 7: B30 RNA-binding protein 7 with A146M, S148A
B33: RBM7 N148: RBM7, N148 to alanine (protein, UniProt Q9Y580 2-266, looked up, variant N148A)
RNA-binding protein 7: B30 RNA-binding protein 7 with A146M, N147A
B34: RBM7 N140: RBM7, N140 to alanine (protein, UniProt Q9Y580 2-266, looked up, variant N140A)
RNA-binding protein 7: B30 RNA-binding protein 7 with N139A, A146M
B35: RBM7 P138: RBM7, P138 to alanine (protein, UniProt Q9Y580 2-266, looked up, variant P138A)
RNA-binding protein 7: B30 RNA-binding protein 7 with P137A, A146M
B36: RBM7 R152: RBM7, R152 to alanine (protein, UniProt Q9Y580 2-266, looked up, variant R152A)
RNA-binding protein 7: B30 RNA-binding protein 7 with A146M, R151A
B37: RBM7 Q153: RBM7, Q153 to alanine (protein, UniProt Q9Y580 2-266, looked up, variant Q153A)
RNA-binding protein 7: B30 RNA-binding protein 7 with A146M, Q152A
B38: RBM7 L151: RBM7, L151 to alanine (protein, UniProt Q9Y580 2-266, looked up, variant L151A)
RNA-binding protein 7: B30 RNA-binding protein 7 with A146M, L150A
B39: RBM7 F141: RBM7, F141 to alanine (protein, UniProt Q9Y580 2-266, looked up, variant F141A)
RNA-binding protein 7: B30 RNA-binding protein 7 with F140A, A146M

Test system: PP2A-B55α
Experiment: Single alanine mutational scan, YFP-tagged interactors immunoprecipitated from HeLa cells, Western blot
Format: binding, human
Conditions: single alanine mutant of YFP-tagged IER2
Protocol: Standard cloning techniques were used throughout. Point mutations were introduced by whole plasmid polymerase chain reaction (PCR). All constructs were fully sequenced. Synthetic DNA was purchased from GeneArt, Life Technologies and cloned into pcDNA5/FRT/TO (Invitrogen) expression vector containing YFP, resulting in the indicated YFP fusion proteins. These constructs were transiently transfected into HeLa cells 24 hours before harvesting cells. Cells were lysed in lysis buffer [50 mM tris-HCl (pH 7.5), 50 mM NaCl, 1 mM EDTA, 1 mM […], and 0.1% NP-40]. Complexes were immunoprecipitated at 4°C in lysis buffer with green fluorescent protein (GFP)–Trap (ChromoTek) and washed in lysis buffer. Precipitated protein complexes were washed three times in lysis buffer, eluted in 2× SDS sample buffer, and subjected to Western blotting or MS as indicated.

First: B1
Second: B2
The Experimental % binding of the first is lower: 83% for the first, 90% for the second.

Compared with B3, B4 is lower in Experimental % binding: 94% for the first, 67% for the second.

Going from B5 to B6, the Experimental % binding rises from 66% to 102%.

First: B7
Second: B8
The Experimental % binding of the first is lower: 87% for the first, 100% for the second.

Compared with B9, B10 is higher in Experimental % binding: 10% for the first, 94% for the second.

Going from B11 to B12, the Experimental % binding falls from 80% to 58%.

First: B13
Second: B14
The Experimental % binding of the first is higher: 90% for the first, 74% for the second.

First: B15
Second: B16
The Experimental % binding of the first is higher: 118% for the first, 77% for the second.

Compared with B17, B18 is lower in Experimental % binding: 70% for the first, 62% for the second.

First: B19
Second: B20
The Experimental % binding of the first is lower: 76% for the first, 81% for the second.

B21 and B22 are the same in Experimental % binding: 81% for the first, 81% for the second.

Compared with B23, B24 is lower in Experimental % binding: 91% for the first, 78% for the second.

In the case of B25, the Experimental % binding is reported as 61%.

Same assay, conditions: single alanine mutant of YFP-tagged PME1

First: B26
Second: B27
The Experimental % binding of the first is lower: 1% for the first, 220% for the second.

Going from B28 to B29, the Experimental % binding falls from 108% to 2%.

Same assay, conditions: single alanine mutant of YFP-tagged RBM7

First: B30
Second: B31
The Experimental % binding of the first is lower: 9% for the first, 77% for the second.

Compared with B32, B33 is lower in Experimental % binding: 109% for the first, 29% for the second.

Compared with B34, B35 is higher in Experimental % binding: 5% for the first, 92% for the second.

First: B36
Second: B37
The Experimental % binding of the first is lower: 62% for the first, 131% for the second.

First: B38
Second: B39
The Experimental % binding of the first is higher: 47% for the first, 4% for the second.
